Assay results taken from the supplement of paper PMC9170038.

System: MS2 coat protein
Experiment: apparent KD of MS2 coat protein; designed switch direction (-1 OFF switch, 1 ON switch): 1; higher = weaker reporter binding
Procedure, shortened: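 The apparent KD reported per design is the median over clusters of curve fits to normalised cluster fluorescence. The RNA switches were transcribed on Illumina chips by stalled E. coli RNA polymerase. SNAP-549-labelled MS2 coat protein was titrated from 0.7 or 1.5 nM, doubling up to 3 µM, in Tris-HCl pH 7.5 buffer containing KCl, MgCl2, BSA, DTT, tRNA and Tween-20, with no input, 200 uM small-molecule ligand, or an oligonucleotide input.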

[1] = input ligand: microRNA oligo, concentration not stated
[2] = Eterna round: R95, input ligand: FMN 200 uM
[3] = Eterna round: R95, input ligand: microRNA oligo, concentration not stated
[4] = Eterna round: R95, input ligand: none

Sequence	apparent KD of MS2 coat protein (input ligand: FMN 200 uM) [nM]	apparent KD of MS2 coat protein [1] [nM]	apparent KD of MS2 coat protein (input ligand: none) [nM]	apparent KD of MS2 coat protein [2] [nM]	apparent KD of MS2 coat protein [3] [nM]	apparent KD of MS2 coat protein [4] [nM]
UAAUUAAAGCAAGGAUAUCACGUCGAAUAGACGUGAGAAGGUGCUCCUUACAUGAGGAUCACCCAUGUAUAACAUGAAUAAUUA [SSNG1/10-B1] (Eterna round: R96, puzzle: Same State NG 1)	166	702	741			
UGUUGUAUUACAGGAUAUCUAUUAUUAUUAUUUAGAGAAGGGUAUUCACAUGAGGAUCACCCAUGUAUAUACGAGGAAGUUGUG [JMF's solution 17] (Eterna round: R96, puzzle: Same State NG 1)		33.8				
CUUUUUAAUGCAGGAUAUGAUCAACAUGAGGAUCACCCAUGUGGCGUUGUGAGUAGGGAGAGUGAUCAGAAGGGCAUCUCCUCG [SS-NG2-LRO08] (Eterna round: R96, puzzle: Same State NG 2)	68	45.1	62.4			
AAUAAGUUCAGCUCGUCUUGCGCCGACUGACAUGAGGAUCACCCAUGUGGAUUCCAAGGAAUCCAUUGGCGUGUUUC [Ororer] (puzzle: Sensor for hsa-mir-208a)				34.8	54.3	24.8
CCGGUUUAUGGAGGAUAUGGAGCCUUAUUGGCUCCAGAAGGCUAAUAACAUGAGGAUCACCCAUGUCGGCGGUCUAAUGACCGA [Eli NG1ss - 56] (Eterna round: R96, puzzle: Same State NG 1)		21.8				
UGGCUGAGUCGAGGAUAUUAUGGAUCCUCUAAUACAUGAGGAUCACCCAUGUAAUUAAUUAUACAUGAGAAGGUGACUCAGCCA [SSNG2/12-B2] (Eterna round: R96, puzzle: Same State NG 2)	463	52.3	342			
AGCUAUUAAUCAGGAUAUGGUCACAUGAGGAUCACCCAUGUAUAGAUGAUUGAAUGUGGUCUAAACUAGAAGGGAUUGCUAACA [SameState NG2 #57] (Eterna round: R96, puzzle: Same State NG 2)	971	232	745			
CACAAUCUAUCUGAGGAUAUCAUGAAAAAAACAUGAGGAUCACCCAUGUGCAGGAAAACUGCAUAUGAGAAGGCAGAUAGAUUGC [salish99_SS2_r3_013] (puzzle: Same State 2)				27.9	460	943
AACAAUCUUUCUGAGGAUAUCAUGAAAUAAACAUGAGGAUCACCCAUGUGCAGGAAAACUGCAUAUGAGAAGGCAGAUAGAUUGA [salish99_ss2_r3_024] (puzzle: Same State 2)				43.3	414	1220
CCUUGUAGCGGAGGAUAUGGGCCUCACUCAGUCAAAGAGUGAGAAACAUGAGGAUCACCCAUGUCCCAGAAGGCCGCUGCAUGG [Ridizaer] (Eterna round: R96, puzzle: Same State NG 2)	12.1	13.8	19.1			
GUGGUCAGACAUGAGGAUCACCCAUGUGGAAUAAAUAACGGACAGGAUAUUCAAUAUAGGAUAUAGAAGAAGGGUUGAUUGGUG (Eterna round: R96, puzzle: Same State NG 3)	143	84.5	90.9			
AGGUAACAUGAGGAUCACCCAUGUAAGGUGAACGUAGGAUAUCGAGGAGGUAGGGUAGGCCGAGAAGGACGAGGAG [JR_SS1_Sub093] (puzzle: Same State 1)					221	
AAAGUACAUGAGGAUCACCCAUGUCCAAAAAAGUAAGGAUAUGUGGUGCGACUACGAAACACAGAAGGUACAAAAA [Malcolm Mod] (puzzle: Same State 1)				30.1	13.3	81.2
GGUCCAGCCUGAGCUGGACGAUAGUAUGUACAUGAGGAUCACCCAUGUCAUGUAUAAGUAUUUUGUUUGUCUUGAAA [Sensorship 3 - Jieux - Sensor for hsa-mir-208a] (puzzle: Sensor for hsa-mir-208a)				22.1	14.7	19.3
GCGCAGCUGGGUGAGGAUAUCGGUGGUAAAACAUGAGGAUCACCCAUGUCCGGAGCUCGGACUUCCGAGAAGGCACCCGGCUGCA [Erisais] (puzzle: Same State 2)					27.2	
GUUAAACAUGAGGAUCACCCAUGUAAUAAUAUGGGAGGAUAUCAGAAAUUAUUUAUUAAAUGAGAAGGCCUAAUUG [Mat - Same State 1 - Mod of Eli - D81] (puzzle: Same State 1)				53.6	321	150

Sequence	apparent KD of MS2 coat protein (input ligand: FMN 200 uM) [nM]	apparent KD of MS2 coat protein [1] [nM]	apparent KD of MS2 coat protein (input ligand: none) [nM]	apparent KD of MS2 coat protein [2] [nM]	apparent KD of MS2 coat protein [3] [nM]	apparent KD of MS2 coat protein [4] [nM]
UUCACCUUAUUUUACAUGAGGAUCACCCAUGUUUUUUUUACGUAGGAUAUCGAUGCUUGAUUGUUCGAGAAGGACGAUGUAAGU [JR_SSND3_Sub054] (Eterna round: R96, puzzle: Same State NG 3)	27.3	24.3	31.1			
AUUCGUUUGAUAGGAUAUCACUUUACAUGAGGAUCACCCAUGUUCACCACGCUGGUCUCUUAUACUGAGAAGGAUCUUGAUGAC [JR_SSNG2_Sub009] (Eterna round: R96, puzzle: Same State NG 2)	22.9	18.8	28			
UUAAUUUACUGAGGAUAUCGUGUCGACUGAGUUGACAUGAGGAUCACCCAUGUGUGAAGUGGUAUCGAGAAGGCAGUUUUCUUA [JR_SSNG2_Sub026] (Eterna round: R96, puzzle: Same State NG 2)	19	76.9	122			
UACAAUCUAUCUGAGGAUAUCAUGAAGAAAACAUGAGGAUCACCCAUGUGCAGGAUAACUGCAAAUGAGAAGGCAGAUAGAUUGG [Mat - Same State 2 - Mod - D4] (puzzle: Same State 2)				12.9	17	24.6
AUGCCAAAUCAAGGAUAUGGAGCCUUAUUGGCUCCAGAAGGUGGGACAUGAGGAUCACCCAUGUGGCAGUGGUCUAAUGACCAC [Fiskers NG1ss - 31] (Eterna round: R96, puzzle: Same State NG 1)	59.7	146	200			
CCGGCAAGUAUAGGAUAUCCCGCUACAGAAGCGGGAGAAGGGUGCCAAACAUGAGGAUCACCCAUGUACACCGGAAAUAUAUAA [Soorve] (Eterna round: R96, puzzle: Same State NG 1)	36.4	31.2	34.6			
UGCCUGAGUCGAGGAUAUUAUGGAUCCUCUAAUACAUGAGGAUCACCCAUGUAAUUAAUUAUACAUGAGAAGGUGACUCAGGCU [SSNG2/12-B1] (Eterna round: R96, puzzle: Same State NG 2)		293				
AGUCCAGCCUGAGCUGGACAAAAGCAUGUACAUGAGGAUCACCCAUGUUCAUGUACAAGCUUUUUGCUCGUCUUAUG [salish99_208a_r3_051] (puzzle: Sensor for hsa-mir-208a)				1040	17	634
CGAGCCGGCACUGAGGAUAUUCAUAUUUAAACAUGAGGAUCACCCAUGUAGGCCAGAAGGCCUUGGGAGAAGGCAGGUCGGCUCC [salish99_ss2_r3_080] (puzzle: Same State 2)				22.6	279	480
UGUUGUAUUACAGGAUAUCUAUUAGGUUUAUUUAGAGAAGGGUAUUCACAUGAGGAUCACCCAUGUAUAUACGAGGAAGUUGUG [JMF's solution 87] (Eterna round: R96, puzzle: Same State NG 1)		41.8				
GCGAGCGUACUUGCUACAUGAGGAUCACCCAUGUUUAUUGGACAGGAUAUGGUACCGUUUCGGUACCAGAAGGGUCCACAUGUA [JL SSNG3 3.85] (Eterna round: R96, puzzle: Same State NG 3)	124	198	549			
UGUUGUAUUACAGGAUAUCUAUUAGUUUUAUUUAGAGAAGGGUAUUCACAUGAGGAUCACCCAUGUAUAUACGAGGAAGUUGUG [JMF's solution 14] (Eterna round: R96, puzzle: Same State NG 1)		42.2				
CGUCCAGCCUGAGCUGGACAAAAGCAUGUACAUGAGGAUCACCCAUGUUCAUGUACAAGCUUUUUGCUCGUCUUAGU [salish99_208a_r3_073] (puzzle: Sensor for hsa-mir-208a)				557	14.5	646
GGCCAGAGUCAAGGAUAUGCUACCGUUUCGGUAGCAGAAGGUGAUCACAUGAGGAUCACCCAUGUUUACUGGGAGACCAUGGCC [JL SSNG1 3.69] (Eterna round: R96, puzzle: Same State NG 1)	219	136	112			
GCUCGAUGAAUGUCCUACAUGAGGAUCACCCAUGUACGUGGGCAGGAUAUUUACAUGCAGAGUGUAGAGAAGGGCCCAUCGAGC [SameState NG3 #62] (Eterna round: R96, puzzle: Same State NG 3)	16.1	28.6	49.1			
AGUCCAGCCUAAGCUGGACAAAAGCAUGUACAUGAGGAUCACCCAUGUUCAUGUACAAGCUUUUUGCAAGUCAAAAU [Mat - hsa-mir-208a - Mod of JL - 79] (puzzle: Sensor for hsa-mir-208a)				1050	19.3	1050
